Target: T1, B3GNT2 (Homo sapiens, UniProt Q9NY97)
T1 construct: The respective ORFs of candidate genes [CD274 (NM_014143), MCL1 (NM_021960), JUNB (NM_002229), and B3GNT2 (NM_006577)] were synthesized; expressed in transfected cells; host or cells: A375 melanoma cells (lentiviral ORF overexpression)
T1 sequence (Q9NY97 1-397): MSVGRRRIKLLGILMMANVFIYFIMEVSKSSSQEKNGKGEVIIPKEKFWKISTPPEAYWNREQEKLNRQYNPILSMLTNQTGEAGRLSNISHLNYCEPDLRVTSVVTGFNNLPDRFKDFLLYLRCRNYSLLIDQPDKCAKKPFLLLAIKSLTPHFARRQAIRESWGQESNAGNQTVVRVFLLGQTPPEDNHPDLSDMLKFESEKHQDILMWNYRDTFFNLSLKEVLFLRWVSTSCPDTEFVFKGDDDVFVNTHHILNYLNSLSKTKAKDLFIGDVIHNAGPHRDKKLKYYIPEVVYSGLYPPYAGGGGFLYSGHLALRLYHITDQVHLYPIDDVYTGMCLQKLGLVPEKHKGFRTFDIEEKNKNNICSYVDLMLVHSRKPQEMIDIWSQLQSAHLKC
Assay: Co-IP of FLAG-tagged B3GNT2 followed by mass spectrometry
Assay type: cell-based
Parameters: C-term IgG / C-term flag: unit not given here
Description: Cells were plated in 10-cm cell culture dishes and grown to 60-80% confluency. For each condition, two biological replicates were harvested for co-IP. Cells were washed with PBS and 4 mL of lysis buffer (20 mM HEPES, 1% Triton X-100, 150 mM NaCl, 1 mM EDTA, and 10% glycerol) containing protease inhibitor cocktail was added. Cells were scraped and lysate was incubated at 4° C. under rotary agitation for 1 h. Lysate was centrifuged at 14,000×g for 10 min at 4° C. Supernatant was transferred to a new tube and an aliquot was taken as the input. […] For Western blots, 10 μg/mL Chicken Anti-FLAG (Aves labs ET-DY100) and IgY control (R&D Systems AB-101-C) antibodies were biotinylated (Thermo Fisher Scientific 90407) and added to the respective conditions. Lysates with antibodies were incubated at 4° C. under rotary agitation overnight. For each mL of lysate, 50 μL of Pierce Protein A/G Magnetic Beads (Mass spectrometry; Thermo Fisher Scientific 88803) or Pierce Streptavidin Magnetic Beads (Western blot; Thermo Fisher Scientific 88817) was washed twice with lysis buffer. Lysates with antibodies were added to the beads and incubated at 4° C. under rotary agitation for 4 h. Beads were washed with lysis buffer 3 times and resuspended in lysis buffer for storage. […] This solution was subjected to solid phase extraction to concentrate the peptides and remove unwanted reagents followed by injection onto a Shimadzu HPLC with fraction collector. Eight fractions were collected and after concentration were injected on a Waters NanoAcquity HPLC equipped with a self-packed Aeris 3 μm C18 analytical column 0.075 mm by 20 cm, (Phenomenex). Peptides were eluted using standard reverse-phase gradients. The effluent from the column was analyzed using a Thermo Orbitrap Elite mass spectrometer (nanospray configuration) operated in a data dependent manner for 54 minutes. […] Scaffold Q+S (Proteome Software) was used to provide consensus reports for the identified proteins.

[1] = Co-IP followed by mass spectrometry of B3GNT2, C-term tag, FLAG pull-down
[2] = Co-IP followed by mass spectrometry of B3GNT2, C-term tag, IgG pull-down
[3] = Co-IP followed by mass spectrometry of B3GNT2, N-term tag, FLAG pull-down
[4] = Co-IP followed by mass spectrometry of B3GNT2, N-term tag, IgG pull-down
[5] = Co-IP with FLAG antibody, C-terminally FLAG-tagged B3GNT2, mass spectrometry count, unit not given
[6] = Co-IP with FLAG antibody, N-terminally FLAG-tagged B3GNT2, mass spectrometry count, unit not given
[7] = Co-IP with IgG control antibody, C-terminally FLAG-tagged B3GNT2, mass spectrometry count, unit not given
[8] = Co-IP with IgG control antibody, N-terminally FLAG-tagged B3GNT2, mass spectrometry count, unit not given

Substance	C-term flag [1]	C-term IgG [2]	N-term FLAG [3]	N-term IgG [4]	C-term flag [5]	N-term FLAG [6]	C-term IgG [7]	N-term IgG [8]
HUWE1	0	0	3	0	–	–	–	–
IPO13	–	–	–	–	2	0	0	0
ITGB3	3	0	3	0	–	–	–	–
KRT4	37	0	22	21	–	–	–	–
LAMB1	–	–	–	–	2	0	0	0
LAMC1	4	0	0	0	–	–	–	–
LARP4	–	–	–	–	2	0	0	0
LCN1	11	6	11	9	–	–	–	–
LGALS7B	4	3	7	4	–	–	–	–
LRP2	–	–	–	–	2	0	0	0
LYZ	–	–	–	–	6	3	0	4
MAP1B	–	–	–	–	2	0	0	0
MON2	–	–	–	–	3	0	0	0
MYH11	7	5	2	3	–	–	–	–
NPM1	–	–	–	–	8	0	0	0
P4HB	–	–	–	–	23	3	0	0
P01837.1	146	108	89	87	–	–	–	–
PABPC1	41	30	31	37	–	–	–	–
PCBP1	–	–	–	–	4	4	3	0
PCMT1	2	0	4	0	–	–	–	–
PIGR	–	–	–	–	5	2	0	0
PKM	3	2	3	2	–	–	–	–

Substance	C-term flag [1]	C-term IgG [2]	N-term FLAG [3]	N-term IgG [4]	C-term flag [5]	N-term FLAG [6]	C-term IgG [7]	N-term IgG [8]
PPIA	–	–	–	–	0	6	0	0
PPIB	–	–	–	–	2	0	0	0
PRBP1	9	6	6	7	–	–	–	–
PRKDC	–	–	–	–	11	24	0	0
PRRC2A	5	3	2	3	–	–	–	–
PRRC2C	15	6	6	11	–	–	–	–
PSMA1	–	–	–	–	0	2	0	0
PSMA4	–	–	–	–	0	2	0	0
PSMA7	2	0	4	0	–	–	–	–
PSMB5	0	0	4	0	–	–	–	–
PSMC4	–	–	–	–	0	3	0	0
PSMD3	–	–	–	–	0	3	0	0
PSMD4	–	–	–	–	0	2	0	0
PXN	–	–	–	–	0	2	0	0
RAB1B	–	–	–	–	2	0	0	0
RNASE1	–	–	–	–	2	0	0	0
RPL28	16	3	8	3	–	–	–	–
RPS24	8	2	0	4	–	–	–	–
S100A8	–	–	–	–	3	15	5	4
S100A9	–	–	–	–	9	18	5	0
SEC16A	–	–	–	–	0	2	0	0
SEL1L	–	–	–	–	5	3	0	0

From US20240261333A1, “NOVEL TARGETS FOR ENHANCING ANTI-TUMOR IMMUNITY” (THE BROAD INSTITUTE, INC., priority 2021, published 2024)
